This test addresses T1, HLA B*0702 (human).
T1 construct: Class I MHC molecule of the cells from which the associated phosphopeptides were detected; also called HLA-B7
The experiment in a line: MS of peptides eluted from HLA; L/M column: L.

The text below walks through data of patent publication US20150224182A1 (UNIVERSITY OF VIRGINIA PATENT FOUNDATION, published 2015).

Non-standard residues stand in square brackets, D forms with d. No end group written: not given here. pT = C[C@@H](OP(=O)(O)O)[C@H](N)C(=O)O; pS = N[C@@H](COP(=O)(O)O)C(=O)O

For RPF[pS]PREAL [RPFsPREAL], the binding result was “binds”. Next, RPP[pS]PGPVL [RPPsPGPVL]: “binds”; RPH[pS]PEKAF [RPHsPEKAF]: “binds”; KPP[pT]PGASF [KPPtPGASF]: “binds”. With RPKLS[pS]PAL [RPKLSsPAL], the binding result is “binds”.

As to KPA[pS]PARRL [KPAsPARRL], the binding result was “binds”.

As for LPA[pS]PRARL [LPAsPRARL], the binding result was “binds”. Next, RPPPPPD[pT]PP [RPPPPPDtPP]: “binds”; RPV[pS]PGKDI [RPVsPGKDI]: “binds”; RPKPSS[pS]PV [RPKPSSsPV]: “binds”. In the case of KPP[pS]PEHQSL [KPPsPEHQSL], the binding result was “binds”. As to RP[pS]SPALYF [RPsSPALYF], the binding result is given as “binds”. Next, RPN[pS]PSPTAL [RPNsPSPTAL]: “binds”. Next, QPR[pS]PGPDYSL [QPRsPGPDYSL]: “binds”; KPA[pS]PKFIVTL [KPAsPKFIVTL]: “binds”; RPR[pS]PSPIS [RPRsPSPIS]: “binds”. Next, RPQRA[pT]SNVF [RPQRAtSNVF]: “binds”; RPP[pS]SEFLDL [RPPsSEFLDL]: “binds”.

KPY[pS]PLASL [KPYsPLASL]: the binding result is “binds”. With RPR[pS]PAARL [RPRsPAARL] the entry was “binds”; with RPW[pS]PAVSA [RPWsPAVSA], “binds”.

Regarding RPD[pS]RLGKTEL [RPDsRLGKTEL], the binding result is on record as “binds”. With KPPH[pS]PLVL [KPPHsPLVL], the binding result is recorded as “binds”. Next, FRR[pS]PTKSSLDY [FRRsPTKSSLDY]: “binds”; RPQRAT[pS]NVF [RPQRATsNVF]: “binds”. Next, RPSRS[pS]PGL [RPSRSsPGL]: “binds”; RPR[pS]PGSNSKV [RPRsPGSNSKV]: “binds”; RPA[pT]GGPGVA [RPAtGGPGVA]: “binds”. With EPKRR[pS]ARL [EPKRRsARL] the entry was “binds”; with RAP[pS]PSSRM [RAPsPSSRM], “binds”; with RPI[pT]PPRNSA [RPItPPRNSA], “binds”. For RPV[pT]PVSDL [RPVtPVSDL], the binding result is “binds”. KPPYRSH[pS]L [KPPYRSHsL]: the binding result is recorded as “binds”. Next, RPY[pS]PPFFSL [RPYsPPFFSL]: “binds”; FSI[pS]PVRL [FSIsPVRL]: “binds”; RPAK[pS]MDSL [RPAKsMDSL]: “binds”. With RPR[pS]PRQNSI [RPRsPRQNSI] the entry was “binds”; with KPR[pS]PDHVL [KPRsPDHVL], “binds”. As for RPA[pS]AGAML [RPAsAGAML], the binding result is on record as “binds”. With RPRAN[pS]GGVDL [RPRANsGGVDL] the entry was “binds”.

In the case of RPR[pS]AVLL [RPRsAVLL], the binding result was “binds”. Turning to RPR[pS]PTGP [RPRsPTGP], the binding result was “binds”.

For RPRPH[pS]APSL [RPRPHsAPSL], the binding result is “binds”. Next, FRR[pS]PTKSSL [FRRsPTKSSL]: “binds”; RPR[pS]LEVTI [RPRsLEVTI]: “binds”; RPR[pS]PTGP[pS]NSF [RPRsPTGPsNSF]: “binds”. With KPQTRGK[pT]F [KPQTRGKtF] the entry was “binds”.
